Data on one molecule can be found in article PMC10614411, “Endometrial cancer (EC) derived G3BP1 overexpression and mutant promote EC tumorigenesis and metastasis via SPOP/ERα axis” (Cell Communication and Signaling : CCS, 2023).

For the test, the target named is T1, FLAG-G3BP1 Q392*, bacterially expressed (UniProt Q13283 1-391, Q392*).
T1 construct: The bacterial expression construct is not described in the methods; source: bacterially expressed
The test is described as follows: pull-down; GST fusion protein fixed on glutathione-Sepharose beads, incubated with recombinant FLAG-labeled proteins for 2 h, washed 5 times, Western blot with anti-FLAG. Particulars: both partners purified.

T1 sequence (Q13283 1-391, stated change not applied): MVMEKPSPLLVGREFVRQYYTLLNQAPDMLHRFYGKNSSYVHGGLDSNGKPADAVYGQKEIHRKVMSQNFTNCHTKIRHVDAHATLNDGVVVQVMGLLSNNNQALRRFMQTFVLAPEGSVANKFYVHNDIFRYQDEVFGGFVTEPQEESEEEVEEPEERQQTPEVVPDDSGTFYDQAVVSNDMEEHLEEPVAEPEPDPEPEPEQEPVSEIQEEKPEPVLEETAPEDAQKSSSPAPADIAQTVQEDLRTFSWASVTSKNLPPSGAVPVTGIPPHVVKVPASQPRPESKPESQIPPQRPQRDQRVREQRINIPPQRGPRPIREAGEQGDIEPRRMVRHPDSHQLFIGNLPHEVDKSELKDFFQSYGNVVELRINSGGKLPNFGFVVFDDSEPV

B1: GST-SPOP, bacterially expressed (natural protein, UniProt O43791 1-374, looked up)
chain: MSRVPSPPPPAEMSSGPVAESWCYTQIKVVKFSYMWTINNFSFCREEMGEVIKSSTFSSGANDKLKWCLRVNPKGLDEESKDYLSLYLLLVSCPKSEVRAKFKFSILNAKGEETKAMESQRAYRFVQGKDWGFKKFIRRDFLLDEANGLLPDDKLTLFCEVSVVQDSVNISGQNTMNMVKVPECRLADELGGLWENSRFTDCCLCVAGQEFQAHKAILAARSPVFSAMFEHEMEESKKNRVEINDVEPEVFKEMMCFIYTGKAPNLDKMADDLLAAADKYALERLKVMCEDALCSNLSVENAAEILILADLHSADQLKTQAVDFINYHASDVLETSGWKSMVVSHPHLVAEAYRSLASAQCPFLGPPRKRLKQS
notes: SPOP as a GST fusion protein; The bacterial expression construct is not described in the methods
Turning to B1, the binding result is given as “binds”.
